The target of this experiment is CePoFUT1 single mutant M172C, singly labelled with ATTO488 or ATTO647N (Caenorhabditis elegans) (UniProt Q18014). Kind of experiment: single-molecule fluorescence coincidence (dual-colour PIE); CePoFUT1-A488 and CePoFUT1-A647N incubated 1:1 at 1 uM for 30 min in 10 mM Tris, 1 mM EDTA, 0.005% Tween 20, pH 8.5, diluted to 40 pM; substrates at 15-fold molar excess where added; monomer to dimer.

In turn, “CePoFUT1 single mutant M172C, singly labelled with ATTO488 or ATTO647N (from UniProt Q18014 26-383) (enzyme)” returned a percent dimers (free form) of 6.2%; a percent dimers (with GDP and HsEGF11-12-13) of 4.6%; a percent dimers (with HsEGF11-12-13) of 6.7%; a percent dimers (with HsEGF12) of 6.8%. Also, the percent of total protein in a dimeric state lay in the range of 4 to 6% and the stoichiometry N (usually a count of units in the complex or per binding partner) came to 2.

These data come from PMC8067585.
